Among the data in US20220089784A1 (University of California, published 2022) are binding result and Kd values, retold here.

Where two headings read alike, the source gives them in different places.

What all share (experiment): yeast scFv FACS
One assay addresses T1, BoNT/C1 holotoxin (Clostridium botulinum, UniProt P18640 2-1291).
T1 sequence: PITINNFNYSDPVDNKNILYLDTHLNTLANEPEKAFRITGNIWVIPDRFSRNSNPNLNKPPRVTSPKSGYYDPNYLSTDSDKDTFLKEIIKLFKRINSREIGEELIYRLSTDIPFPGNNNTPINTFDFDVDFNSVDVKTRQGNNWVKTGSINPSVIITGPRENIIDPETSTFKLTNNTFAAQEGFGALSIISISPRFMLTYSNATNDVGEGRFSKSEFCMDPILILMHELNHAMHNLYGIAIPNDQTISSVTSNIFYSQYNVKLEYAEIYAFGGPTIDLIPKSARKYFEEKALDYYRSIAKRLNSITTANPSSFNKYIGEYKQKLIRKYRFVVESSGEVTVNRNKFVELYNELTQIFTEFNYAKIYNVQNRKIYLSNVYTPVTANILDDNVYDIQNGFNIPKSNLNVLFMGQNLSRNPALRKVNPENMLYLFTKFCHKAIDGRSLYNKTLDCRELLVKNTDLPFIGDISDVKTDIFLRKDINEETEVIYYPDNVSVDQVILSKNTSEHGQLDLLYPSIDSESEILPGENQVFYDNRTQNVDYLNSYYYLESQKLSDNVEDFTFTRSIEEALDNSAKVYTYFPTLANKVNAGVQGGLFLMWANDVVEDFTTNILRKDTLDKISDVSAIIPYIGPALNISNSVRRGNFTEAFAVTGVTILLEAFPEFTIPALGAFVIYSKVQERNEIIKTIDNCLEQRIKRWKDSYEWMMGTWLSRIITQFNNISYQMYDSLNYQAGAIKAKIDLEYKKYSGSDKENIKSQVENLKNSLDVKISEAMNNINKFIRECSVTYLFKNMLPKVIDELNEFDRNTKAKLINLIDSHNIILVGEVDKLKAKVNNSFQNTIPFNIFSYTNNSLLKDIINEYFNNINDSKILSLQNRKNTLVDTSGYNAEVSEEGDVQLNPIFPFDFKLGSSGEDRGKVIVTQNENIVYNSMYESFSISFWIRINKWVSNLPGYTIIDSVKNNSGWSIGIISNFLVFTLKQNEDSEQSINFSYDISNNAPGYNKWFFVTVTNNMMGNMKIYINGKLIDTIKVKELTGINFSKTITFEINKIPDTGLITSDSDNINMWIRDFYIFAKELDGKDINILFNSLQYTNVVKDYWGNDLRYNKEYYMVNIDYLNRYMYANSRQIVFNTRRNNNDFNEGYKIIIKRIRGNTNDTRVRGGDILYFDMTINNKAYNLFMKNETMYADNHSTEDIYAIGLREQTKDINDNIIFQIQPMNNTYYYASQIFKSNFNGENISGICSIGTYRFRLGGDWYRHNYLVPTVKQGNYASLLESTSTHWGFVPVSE

Another assay deals with T2, BoNT/D (Clostridium botulinum, UniProt P19321 2-1276).
T2 sequence: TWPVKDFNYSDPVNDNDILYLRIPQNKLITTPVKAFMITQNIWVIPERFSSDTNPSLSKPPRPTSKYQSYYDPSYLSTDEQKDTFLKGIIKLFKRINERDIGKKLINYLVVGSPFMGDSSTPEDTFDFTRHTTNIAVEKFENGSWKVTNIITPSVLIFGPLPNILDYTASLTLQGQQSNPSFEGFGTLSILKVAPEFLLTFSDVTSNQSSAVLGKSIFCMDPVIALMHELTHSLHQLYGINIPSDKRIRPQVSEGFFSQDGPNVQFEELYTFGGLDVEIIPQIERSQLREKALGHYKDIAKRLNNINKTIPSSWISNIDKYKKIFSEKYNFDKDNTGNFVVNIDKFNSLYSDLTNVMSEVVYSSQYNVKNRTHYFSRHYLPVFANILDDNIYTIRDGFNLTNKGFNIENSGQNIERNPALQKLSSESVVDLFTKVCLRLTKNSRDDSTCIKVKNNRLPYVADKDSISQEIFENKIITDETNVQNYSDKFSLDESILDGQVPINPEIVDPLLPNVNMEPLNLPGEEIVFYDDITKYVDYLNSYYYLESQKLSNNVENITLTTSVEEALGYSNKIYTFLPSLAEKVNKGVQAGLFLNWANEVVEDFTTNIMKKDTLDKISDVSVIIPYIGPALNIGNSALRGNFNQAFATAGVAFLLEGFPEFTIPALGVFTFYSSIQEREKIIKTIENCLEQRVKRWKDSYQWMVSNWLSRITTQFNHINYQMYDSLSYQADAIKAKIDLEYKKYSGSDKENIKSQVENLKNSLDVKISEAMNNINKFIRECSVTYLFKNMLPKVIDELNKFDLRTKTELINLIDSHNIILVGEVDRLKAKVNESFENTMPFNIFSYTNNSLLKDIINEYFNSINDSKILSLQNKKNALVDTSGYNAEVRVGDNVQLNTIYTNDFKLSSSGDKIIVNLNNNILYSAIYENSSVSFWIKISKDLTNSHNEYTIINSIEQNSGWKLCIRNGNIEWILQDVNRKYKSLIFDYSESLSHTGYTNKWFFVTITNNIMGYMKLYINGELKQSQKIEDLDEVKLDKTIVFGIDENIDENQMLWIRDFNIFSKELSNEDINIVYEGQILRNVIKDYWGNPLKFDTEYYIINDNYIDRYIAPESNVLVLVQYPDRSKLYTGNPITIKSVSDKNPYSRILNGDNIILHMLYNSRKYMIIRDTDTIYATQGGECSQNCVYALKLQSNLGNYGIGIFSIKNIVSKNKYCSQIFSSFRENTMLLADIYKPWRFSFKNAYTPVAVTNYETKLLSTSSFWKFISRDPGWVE

Assay [1] deals with T3, BoNT/F1 (proteolytic BoNT/F) (Clostridium botulinum, UniProt A7GBG3 1-1278).
T3 sequence: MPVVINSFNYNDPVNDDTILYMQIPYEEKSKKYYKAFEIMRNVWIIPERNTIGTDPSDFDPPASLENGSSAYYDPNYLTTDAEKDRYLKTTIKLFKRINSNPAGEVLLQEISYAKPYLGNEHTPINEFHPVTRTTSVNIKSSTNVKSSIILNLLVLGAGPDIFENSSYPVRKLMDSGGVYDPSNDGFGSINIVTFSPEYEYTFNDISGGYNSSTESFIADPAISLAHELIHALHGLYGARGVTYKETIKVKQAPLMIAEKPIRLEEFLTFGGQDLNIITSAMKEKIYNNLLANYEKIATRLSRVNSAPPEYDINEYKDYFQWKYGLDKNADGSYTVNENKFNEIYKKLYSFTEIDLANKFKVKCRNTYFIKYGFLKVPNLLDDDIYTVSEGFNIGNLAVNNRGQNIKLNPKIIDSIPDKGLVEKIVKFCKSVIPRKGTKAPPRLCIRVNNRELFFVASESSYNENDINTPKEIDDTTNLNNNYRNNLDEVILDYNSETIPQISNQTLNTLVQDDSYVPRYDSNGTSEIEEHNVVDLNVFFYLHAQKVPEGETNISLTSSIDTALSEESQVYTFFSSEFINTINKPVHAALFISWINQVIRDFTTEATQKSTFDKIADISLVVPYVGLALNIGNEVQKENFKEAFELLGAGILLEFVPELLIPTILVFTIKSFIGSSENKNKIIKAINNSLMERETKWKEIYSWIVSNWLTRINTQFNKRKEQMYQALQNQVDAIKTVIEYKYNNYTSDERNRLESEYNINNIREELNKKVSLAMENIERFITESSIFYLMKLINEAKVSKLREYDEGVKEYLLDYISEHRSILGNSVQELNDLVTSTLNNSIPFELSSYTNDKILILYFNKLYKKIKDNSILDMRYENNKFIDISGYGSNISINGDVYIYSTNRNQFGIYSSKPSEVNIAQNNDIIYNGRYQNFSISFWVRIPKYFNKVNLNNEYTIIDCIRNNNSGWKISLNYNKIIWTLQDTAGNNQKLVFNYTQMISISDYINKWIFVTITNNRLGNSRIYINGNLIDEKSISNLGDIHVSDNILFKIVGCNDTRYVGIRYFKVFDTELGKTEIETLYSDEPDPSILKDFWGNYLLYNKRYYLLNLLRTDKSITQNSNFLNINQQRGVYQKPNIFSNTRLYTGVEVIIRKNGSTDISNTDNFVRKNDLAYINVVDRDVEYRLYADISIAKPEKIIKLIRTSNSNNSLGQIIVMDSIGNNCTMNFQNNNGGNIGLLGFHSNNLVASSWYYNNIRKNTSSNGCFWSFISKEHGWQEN

Assay [2] has as its target T3, BoNT/F1 (proteolytic BoNT/F). This is another data set of the same source.

B1: 8DC2 scFv (scFv, V domains shown)
VH: QVQLVQSGAEVKKPGSSVKVSCKTSGGTFRNFAISWVRQAPGQGLEWMGGIIPMFGKGHYAQNFQGRVTITADDSTTTAYMELSSLRYEDTAVYYCARGTRNGSLRDAFDIWGQGTTVTVSS
VL: ASVLTQDPSASGSPGQSVTISCTGTSSDVGGYNYVSWYQQHPGKAPKLMIYDVSNRPSEVPDRFSGSKSGNTASLTVSGLQAEDEADYYCSSYAGSNKRVFGGGTKLTVL
notes: human
Regarding B1, the binding result with BoNT/C1 holotoxin is reported as “binds”; with BoNT/D, “no binding (tested: ~1 µM)”.

B2: 29A2 scFv (scFv, V domains shown)
VH: EVQLLETGGDLVKPGGSLKLSCAASGFTFSYYGMSWVRQTPDKRLEWVATISSGGSYTYYPDSVKGRFTISRDNAKNTLYLQMSSLKSEDTAMYYCARRRVYYGSSYEDYWGQGTTLTVSS
VL: EIVLTQSPALMSASPGEKVTMTCSASSSVSYMYWYQQKPRSSPKPWIYLTSNLASGVPARFSGSGSGTSYSLTISSMEAEDAATYYCQQWSSNPYTFGGGTKLELK
On to B2, for which the Kd in assay [1] and in assay [2] was 0.99 nM throughout.

B3: 30C8 scFv (scFv, V domains shown)
VH: EVQLKQSGTELVKPRSSVKMSCKASGYTFTDYWIGWTKQRPGHGLEWIGHIYPGGGYTNYNEKFKGKATLTADISSSAAYMQFSSPTSEDSAIYYCARIIMVESGDWYFDVWGTGTTLTVSS
VL: DIVLTQSPAIMSASLGEEITLTCSASSSVSYMHWYQQKSGTSPKLLIYSTSNLASGVPSRFSGSGSGTSYSLTISNMEAEDAATYYCQQWSSNPYTFGGGTKLELK
Turning to B3, the Kd in assay [1] and in assay [2] was 0.2 nM throughout.

B4: 28C11 scFv (scFv, V domains shown)
VH: EVQLQESGGDLVKPGGSLKLSCAASGFTFSYYGMSWVRQTPDKRLEWVATISSGGTYTYYPDSVKGRFTISRDNAKNTLYLQMSSLSSEDTAMYYCARRRSYDSVYWYFDVWGAGTSVTVSS
VL: DIVLTQSPAITAASLGQKVTITCSASSSGSYIHWYQQKSGTSPKLLIYRTSNLASGVPSRFSGSGSGTFYSLTISSVEAEDAADYFCHQWSSYPTFGGGTKLEIK
On to B4, for which the Kd in assay [1] and in assay [2] was 0.12 nM in each case.

B5: 29B8 scFv (scFv, V domains shown)
VH: EVQLQQSGAELVKPGASVKLSCTASGFNIKDYYMHWVKQRTEQGLEWIGRIDPEDGETKYAPKFQGKATITADTSSNTAYLQLSSLTSEDTAVYYCVSLLRSRTGYFDYWGQGTTLTVSS
VL: ENVLTQSPAIMSASPGEKVTMTCSASSSVSYMHWYQQKSGTSPKRWIYDTSNLAPGVPARFSGSGSGTSYSLTISSMEAEDAASYFCHQWSSYPYTFGGGTKLEIK
As to B5, the Kd in assay [1] and in assay [2] was 35.8 nM in each case.

B6: 8DC3 scFv (scFv, V domains shown)
VH: QVQLVQSGGGLVKPGGSLRLSCAASGFTFSSHSMNWVRQAPGKGLEWVSSISSSSSYIYYADSVKGRFTISRDNSKNSLYLQLNSLRAEDTAVYYCARGDHDFRSGYYGMDVWGQGTMVTVSS
VL: AELTQDPAVSVALGQTVRITCQGDSLRNYYASWYQQKPGQAPVLVIYGKNIRPSGIPDRFSGSSSGNTASLTITGAQAEDEADYYCNSRDSNGNHYVFGTGTKVTVL
notes: human
In the case of B6, the binding result is on record as “no binding (tested: ~1 µM)” with BoNT/C1 holotoxin and “binds” in the assay with BoNT/D.

B7: 28H4 scFv (scFv, V domains shown)
VH: EVQLQQSGAELAKPGASVKLSCKASGYTFTSYWMHWVKQGPGQGLEWIGAIYPGNSDTGYNQKFKGKAKLTAVTSASTAYMELSSLTNEDSAVYYCTRHGYYIYALDYWGQGTSVTVSS
VL: DIVLTQSPAIMSASPGEKVTMTCSASSSVSYMYWYQQKPGSSPKPWIYRTSNLASGVPVRFSGSGSGTSYSLTISSMEAEDAATYYCQQYHNFPPTFGGGTKLEIK
For B7, the Kd in assay [1] and in assay [2] was 20 nM each time.
